From paper PMC2895429

Molecular target: cardiac ryanodine receptor (RyR2) in permeabilized rat ventricular myocytes (rat (endogenous in ventricular myocytes)) (UniProt B0LPN4)
UniProt B0LPN4, sequence (B0LPN4 whole entry): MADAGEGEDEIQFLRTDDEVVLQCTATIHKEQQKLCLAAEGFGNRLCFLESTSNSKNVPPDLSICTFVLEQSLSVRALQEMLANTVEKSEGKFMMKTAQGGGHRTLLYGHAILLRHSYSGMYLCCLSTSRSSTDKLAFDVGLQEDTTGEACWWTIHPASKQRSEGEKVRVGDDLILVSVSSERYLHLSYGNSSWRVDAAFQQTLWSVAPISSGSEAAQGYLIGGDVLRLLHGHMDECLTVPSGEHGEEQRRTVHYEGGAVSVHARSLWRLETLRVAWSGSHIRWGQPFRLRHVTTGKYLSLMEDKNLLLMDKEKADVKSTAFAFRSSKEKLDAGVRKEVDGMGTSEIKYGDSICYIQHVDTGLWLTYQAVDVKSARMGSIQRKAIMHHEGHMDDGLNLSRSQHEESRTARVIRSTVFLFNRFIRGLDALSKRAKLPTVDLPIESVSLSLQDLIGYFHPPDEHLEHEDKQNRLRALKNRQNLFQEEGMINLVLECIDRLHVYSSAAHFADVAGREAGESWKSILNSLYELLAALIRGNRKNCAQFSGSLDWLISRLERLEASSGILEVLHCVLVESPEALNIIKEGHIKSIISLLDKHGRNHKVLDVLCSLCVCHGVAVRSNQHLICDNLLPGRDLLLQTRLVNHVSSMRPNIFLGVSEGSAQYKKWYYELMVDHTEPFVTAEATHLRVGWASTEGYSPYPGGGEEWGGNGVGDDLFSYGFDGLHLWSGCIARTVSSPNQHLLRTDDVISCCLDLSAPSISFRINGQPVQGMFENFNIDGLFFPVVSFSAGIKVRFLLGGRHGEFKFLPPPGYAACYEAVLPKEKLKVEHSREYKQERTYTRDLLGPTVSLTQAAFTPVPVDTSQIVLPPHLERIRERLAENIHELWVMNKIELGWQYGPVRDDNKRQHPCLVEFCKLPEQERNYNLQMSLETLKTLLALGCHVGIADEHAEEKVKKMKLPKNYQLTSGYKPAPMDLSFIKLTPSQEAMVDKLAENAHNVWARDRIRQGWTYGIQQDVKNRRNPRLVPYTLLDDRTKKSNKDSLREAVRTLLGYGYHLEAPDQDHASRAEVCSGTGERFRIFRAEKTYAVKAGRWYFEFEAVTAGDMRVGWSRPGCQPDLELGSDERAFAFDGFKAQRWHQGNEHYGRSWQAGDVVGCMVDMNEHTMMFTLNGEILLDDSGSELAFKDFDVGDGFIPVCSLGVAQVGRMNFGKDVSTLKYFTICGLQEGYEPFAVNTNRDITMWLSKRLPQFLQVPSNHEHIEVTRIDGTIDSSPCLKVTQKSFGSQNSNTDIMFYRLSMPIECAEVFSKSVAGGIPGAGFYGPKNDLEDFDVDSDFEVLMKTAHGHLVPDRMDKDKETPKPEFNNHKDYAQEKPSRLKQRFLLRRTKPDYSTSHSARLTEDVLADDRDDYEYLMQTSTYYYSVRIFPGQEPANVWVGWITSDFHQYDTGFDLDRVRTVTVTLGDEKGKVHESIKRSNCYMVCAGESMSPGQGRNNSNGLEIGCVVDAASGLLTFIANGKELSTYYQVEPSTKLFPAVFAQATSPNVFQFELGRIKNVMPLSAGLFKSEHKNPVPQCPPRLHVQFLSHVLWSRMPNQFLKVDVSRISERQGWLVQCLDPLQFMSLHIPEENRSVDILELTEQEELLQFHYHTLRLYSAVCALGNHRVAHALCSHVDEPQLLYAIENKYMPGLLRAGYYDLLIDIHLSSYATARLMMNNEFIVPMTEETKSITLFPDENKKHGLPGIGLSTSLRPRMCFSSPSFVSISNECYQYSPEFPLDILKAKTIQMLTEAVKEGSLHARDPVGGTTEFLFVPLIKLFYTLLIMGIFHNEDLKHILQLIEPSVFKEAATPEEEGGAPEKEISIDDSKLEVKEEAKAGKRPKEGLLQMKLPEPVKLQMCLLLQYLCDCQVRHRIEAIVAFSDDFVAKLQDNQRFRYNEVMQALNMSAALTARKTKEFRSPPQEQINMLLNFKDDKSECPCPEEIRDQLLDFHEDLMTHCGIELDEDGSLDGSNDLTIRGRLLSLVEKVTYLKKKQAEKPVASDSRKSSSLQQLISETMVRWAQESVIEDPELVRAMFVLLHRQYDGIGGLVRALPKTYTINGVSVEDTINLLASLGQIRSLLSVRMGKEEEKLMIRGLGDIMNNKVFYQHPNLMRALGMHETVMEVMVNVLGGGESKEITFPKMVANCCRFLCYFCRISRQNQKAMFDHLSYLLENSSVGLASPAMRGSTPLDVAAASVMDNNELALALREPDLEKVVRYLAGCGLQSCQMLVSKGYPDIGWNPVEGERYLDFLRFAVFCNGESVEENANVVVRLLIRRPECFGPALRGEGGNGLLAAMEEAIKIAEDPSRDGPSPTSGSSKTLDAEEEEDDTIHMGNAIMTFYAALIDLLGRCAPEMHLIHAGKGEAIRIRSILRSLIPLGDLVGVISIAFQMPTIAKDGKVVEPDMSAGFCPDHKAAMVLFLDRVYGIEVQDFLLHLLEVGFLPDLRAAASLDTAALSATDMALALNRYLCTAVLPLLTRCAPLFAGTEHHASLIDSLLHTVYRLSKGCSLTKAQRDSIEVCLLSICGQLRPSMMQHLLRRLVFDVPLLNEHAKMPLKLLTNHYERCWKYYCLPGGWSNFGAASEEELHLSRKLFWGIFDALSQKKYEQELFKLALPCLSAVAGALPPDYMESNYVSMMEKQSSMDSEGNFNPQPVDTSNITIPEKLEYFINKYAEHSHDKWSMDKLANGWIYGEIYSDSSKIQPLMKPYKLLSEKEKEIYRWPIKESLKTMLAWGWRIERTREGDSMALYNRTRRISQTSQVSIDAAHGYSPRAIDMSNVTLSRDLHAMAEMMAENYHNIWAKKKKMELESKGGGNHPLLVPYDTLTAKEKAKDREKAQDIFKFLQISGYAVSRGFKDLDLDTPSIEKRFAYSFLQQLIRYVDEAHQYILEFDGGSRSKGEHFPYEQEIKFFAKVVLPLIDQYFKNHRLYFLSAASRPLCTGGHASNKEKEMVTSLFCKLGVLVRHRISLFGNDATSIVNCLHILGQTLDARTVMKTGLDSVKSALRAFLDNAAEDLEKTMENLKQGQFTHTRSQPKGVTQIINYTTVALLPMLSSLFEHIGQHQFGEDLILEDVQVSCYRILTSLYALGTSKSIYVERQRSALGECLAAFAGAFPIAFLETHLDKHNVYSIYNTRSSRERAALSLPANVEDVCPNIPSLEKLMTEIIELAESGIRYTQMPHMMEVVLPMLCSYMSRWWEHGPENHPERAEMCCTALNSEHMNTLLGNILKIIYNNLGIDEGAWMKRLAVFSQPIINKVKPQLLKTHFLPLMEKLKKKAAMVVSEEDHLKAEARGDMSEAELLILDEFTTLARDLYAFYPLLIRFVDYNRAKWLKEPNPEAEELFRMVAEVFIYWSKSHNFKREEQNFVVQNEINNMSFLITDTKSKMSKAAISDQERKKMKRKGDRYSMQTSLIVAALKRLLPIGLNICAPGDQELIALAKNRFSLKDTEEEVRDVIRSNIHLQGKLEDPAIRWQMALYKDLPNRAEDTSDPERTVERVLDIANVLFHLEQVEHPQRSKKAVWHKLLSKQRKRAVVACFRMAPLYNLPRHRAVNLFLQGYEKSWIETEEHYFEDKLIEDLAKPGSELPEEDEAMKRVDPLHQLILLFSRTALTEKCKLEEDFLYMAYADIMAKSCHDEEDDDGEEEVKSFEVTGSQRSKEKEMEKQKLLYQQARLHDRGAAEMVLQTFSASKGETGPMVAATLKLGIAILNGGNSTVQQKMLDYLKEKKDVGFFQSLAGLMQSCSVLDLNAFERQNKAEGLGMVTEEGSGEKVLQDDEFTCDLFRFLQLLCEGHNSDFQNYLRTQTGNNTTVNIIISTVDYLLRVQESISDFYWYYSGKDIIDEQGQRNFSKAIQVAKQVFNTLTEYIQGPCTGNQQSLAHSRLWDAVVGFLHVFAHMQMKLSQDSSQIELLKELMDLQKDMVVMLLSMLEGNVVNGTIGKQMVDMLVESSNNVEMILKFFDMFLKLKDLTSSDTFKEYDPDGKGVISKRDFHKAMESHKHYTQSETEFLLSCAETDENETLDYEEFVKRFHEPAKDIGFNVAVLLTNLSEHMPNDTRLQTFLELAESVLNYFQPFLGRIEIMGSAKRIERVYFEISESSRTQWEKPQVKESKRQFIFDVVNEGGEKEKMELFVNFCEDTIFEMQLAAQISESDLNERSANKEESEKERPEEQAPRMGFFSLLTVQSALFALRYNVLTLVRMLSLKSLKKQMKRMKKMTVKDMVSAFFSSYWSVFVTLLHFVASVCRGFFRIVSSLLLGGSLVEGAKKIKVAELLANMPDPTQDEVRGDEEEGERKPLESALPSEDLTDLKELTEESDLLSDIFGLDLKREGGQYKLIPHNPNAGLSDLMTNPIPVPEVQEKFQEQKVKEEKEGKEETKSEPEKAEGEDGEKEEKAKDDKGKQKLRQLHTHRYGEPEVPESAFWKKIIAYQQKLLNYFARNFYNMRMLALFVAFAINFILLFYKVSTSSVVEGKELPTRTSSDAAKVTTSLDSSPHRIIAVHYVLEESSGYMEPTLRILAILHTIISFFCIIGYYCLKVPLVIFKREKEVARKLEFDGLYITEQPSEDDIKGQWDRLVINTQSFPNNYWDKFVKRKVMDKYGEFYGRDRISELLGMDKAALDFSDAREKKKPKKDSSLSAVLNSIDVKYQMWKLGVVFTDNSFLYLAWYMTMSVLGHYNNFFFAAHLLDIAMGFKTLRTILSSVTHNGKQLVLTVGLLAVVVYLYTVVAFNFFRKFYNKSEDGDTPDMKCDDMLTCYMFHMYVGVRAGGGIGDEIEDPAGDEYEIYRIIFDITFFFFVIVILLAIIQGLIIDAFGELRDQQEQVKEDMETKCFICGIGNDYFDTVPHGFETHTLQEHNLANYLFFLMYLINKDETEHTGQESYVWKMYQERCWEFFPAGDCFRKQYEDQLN

## non-fluorescent wild type FKBP12.6 (from UniProt P68106 1-108) (natural protein)
  decrease in Ca spark amplitude in permeabilized rat myocytes: 15%
  decrease in resting Ca spark frequency (CaSpF) in permeabilized rat myocytes: 24%
